Data taken from patent US12065466B2, “Methods and compositions for protein sequencing” (Quantum-Si Incorporated, priority 2020, dated 2024).

Tested on: amino acid at a terminal position of a polypeptide
Assay: Amino acid binding preference of recognition proteins (Tables 1 and 2)
Settings: Table 1, ClpS proteins; amino acid identity at a terminal position of a polypeptide; inferred from literature and/or demonstrated by the inventors
Excerpt: It should be appreciated that these sequences and other examples described herein are meant to be non-limiting, and recognition molecules in accordance with the application can include any homologs, variants thereof, or fragments thereof minimally containing domains or subdomains responsible for peptide recognition.

| Molecule | Binding Pref. |
| --- | --- |
| PS412: ClpS protein, SEQ ID NO: 35 (protein) MATKREGSTLLEPTAAKVKPPPLYKVLLLNDDYTPMEFVVLVLKKFFGIDQERATQIMLKVHTEGVGVCGVYPRDIAHTKVEQVVDFARQHQHPLQCTMEES | F, Y, W, L |
| PS414: ClpS protein, SEQ ID NO: 37 (protein) MQAAGNEPPDPQNPGDVGNGGDGGNQDGSNTGVVVKTRTRTRKPAMYKVLMLNDDYTPMEFVVHVLERFFQKNREEATRIMLHVHRRGVGVCGVYTYEVAETKVTQVMDLARQNQHPLQCTIEKE | F, Y, W, L |
| PS421: ClpS protein, SEQ ID NO: 44 (protein) MTTPNKRPEFEPEIGLEDEVGEPRKYKVLLHNDDYTTMDFVVQVLIEVFRKSETEATHIMLTIHEKGVGTCGIYPAEVAETKINEVHTRARREGFPLRASMEEV | F, Y, W, L |
| PS420: ClpS protein, SEQ ID NO: 43 (protein) MSDYSNQISQAGSGVAEDASITLPPERKVVFYNDDFTTMEFVVDVLVSIFNKSHSEAEELMQTVHQEGSSVVGVYTYDIAVSRTNLTIQAARKNGFPLRVEVE | F, Y, W, L |
| PS415: ClpS protein, SEQ ID NO: 38 (protein) MALPETRTKIKPDVNIKEPPNYRVIYLNDDKTSMEFVIGSLMQHFSYPQQQAVEKTEEVHEHGSSTVAVLPYEMAEQKGIEVTLDARAEGFPLQVKIEPAER | F, Y, W |
| PS419: ClpS protein, SEQ ID NO: 42 (protein) MEKEQSLCKEKTHVELSEPKHYKVVFHNDDFTTMDFVVKVLQLVFFKSQLQAEDLTMKIHLEGSATAGIYSYDIAQSKAQKTTQMAREEGFPLRLTVEPEDN | F, Y, W, L |
| PS413: ClpS protein, SEQ ID NO: 36 (protein) MMKQCGSYFLIKAVQDFKPLSKHRSDTDVITETKIQVKQPKLYTVIMYNDNYTTMDFVVYVLVEIFQHSIDKAYQLMMQIHESGQAAVALLPYDLAEMKVDEVTALAEQESYPLLTTIEPA | F, Y, W, L |
| PS370: ClpS protein, SEQ ID NO: 3 (protein) MFNSLGTVLDPKKSKAKYPEARVIVLDDNFNTFQHVANCLLAIIPRMCEQRAWDLTIKVDKAGSAEVWRGNLEQAELYHEQLFSKGLTMAPIEKT | F, L |
| PS416: ClpS protein, SEQ ID NO: 39 (protein) MTSQTDTLVKPNIQPPSLFKVIYINDSVTTMEFVVESLMSVFNHSADEATRLTQLVHEEGAAVVAILPYELAEQKGMEVTLLARNNGFPLAIRLEPAV | F, Y, W, L |
| PS418: ClpS protein, SEQ ID NO: 41 (protein) MSDHNIDHDTSVAVHLDVVVREPPMYRVVLLNDDFTPMEFVVELLMHFFRKTAEQATQIMLNIHHEGVGVCGTYPREIAETKVAQVHQHARTNGHPLKCRMEPS | F, Y, W, L |
| PS417: ClpS protein, SEQ ID NO: 40 (protein) MSNLDTDVLIDEKVKVVTTEPEKYRVILLNDDVTPMDFVINILVSIFKHSTDTAKDLTLKIHKEGSAIVGVYTYEIAEQKGIEATNESRQHGFPLQVKIERENTL | F, Y, W |
| PS411: ClpS protein, SEQ ID NO: 34 (protein) MTRPDAPEYDDDLAVEPAEPELARPPLYKVVLHNDDFTPMEFVVEVLQEFFNMDSEQAVQVMLAVHTQGKATCGIFTRDIAETKSYQVNEYARECEHPLMCDIEAAD | F, Y, W, L |
